Numbered stars: 1 amine (or outer) side, 2 acyl side, 3 side chain; on linkers, the order of the positions; unused ones are H or OH. Bridge positions count the residues as written; N and C are the ends. Square brackets hold non-standard residues; d marks the D form. Ends that are not written are not given here. * marks the point of attachment. X12 = (S)‑(trifluoromethyl)‑L‑cysteine, O=C([C@H](CSC(F)(F)F)N[*:1])[*:2]; (N,N-diMe)A = (N,N-diMe)A, L-N,N-dimethylalanine, C[C@@H](C(=O)*)N(C)C; Leu(4-F) = 4-fluoroleucine, CC(C)(F)C[C@H](N[*:1])C(=O)[*:2]; Pro(4-spirocPr) = O=C(O)[C@@H]1CC2(CC2)CN1; Oic = O=C(O)[C@@H]1C[C@@H]2CCCC[C@@H]2N1; tBuAla = CC(C)(C)C[C@H](N)C(=O)O; Chg = N[C@H](C(=O)O)C1CCCCC1; Pen = CC(C)(S)[C@H](N)C(=O)O; NMePro = CN1CCC[C@H]1C(=O)*; 4Amb = NCc1ccc(C(=O)O)cc1; NMeC = CN[C@@H](CS)C(=O)O; NMeA = CN[C@@H](C)C(=O)O; Orn = NCCC[C@H](N)C(=O)O; Ahx = NCCCCCC(=O)O; Sar = CNCC(=O)O

Assay [1] has as its target Recombinant human MASP2 enzyme (fragment corresponding to amino acids 297-686, C-terminal His Tag) (human, UniProt O00187 297-686). Put plainly: cell-based or functional assay.
The target of assay [2] is T1, Recombinant human MASP1 enzyme (fragment corresponding to amino acids 297-699, C-terminal His Tag) (human, UniProt P48740 297-699).
T1 sequence: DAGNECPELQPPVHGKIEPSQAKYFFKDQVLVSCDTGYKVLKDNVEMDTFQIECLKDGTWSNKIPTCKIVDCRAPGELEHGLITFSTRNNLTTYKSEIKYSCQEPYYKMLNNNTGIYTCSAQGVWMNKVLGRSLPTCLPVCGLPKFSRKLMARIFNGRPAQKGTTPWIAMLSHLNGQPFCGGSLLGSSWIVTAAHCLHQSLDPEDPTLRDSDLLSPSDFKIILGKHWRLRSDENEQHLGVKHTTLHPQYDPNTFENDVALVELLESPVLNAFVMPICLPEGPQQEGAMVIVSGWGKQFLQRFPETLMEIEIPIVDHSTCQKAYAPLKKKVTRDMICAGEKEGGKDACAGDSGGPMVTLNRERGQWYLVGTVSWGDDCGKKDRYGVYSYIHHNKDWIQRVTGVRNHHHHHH
The assay is described as follows: cell-based or functional assay.

Recombinant human MASP2 enzyme (fragment corresponding to amino acids 297-686, C-terminal His Tag), sequence (O00187 other isoform, or with tags, fused parts or gaps limits assumed): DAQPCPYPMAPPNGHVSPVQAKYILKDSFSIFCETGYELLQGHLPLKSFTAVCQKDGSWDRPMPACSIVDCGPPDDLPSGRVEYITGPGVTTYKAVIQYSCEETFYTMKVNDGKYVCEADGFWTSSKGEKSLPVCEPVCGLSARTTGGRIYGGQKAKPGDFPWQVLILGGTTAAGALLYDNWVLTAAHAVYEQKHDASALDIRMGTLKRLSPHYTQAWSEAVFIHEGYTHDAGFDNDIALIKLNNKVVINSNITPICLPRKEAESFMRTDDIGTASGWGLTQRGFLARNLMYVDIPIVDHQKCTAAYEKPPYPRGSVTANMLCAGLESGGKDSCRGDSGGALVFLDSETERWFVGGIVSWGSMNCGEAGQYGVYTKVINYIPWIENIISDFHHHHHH

B1: ((N-Me)P)-IC+SRS-((tBu)A)-PPIC+IPD-NH2 (peptide)
peptide: [NMePro]ICSRS[tBuAla]PPICIPD-NH2
modifications: disulfide 3-11
SMILES: CC[C@H](C)[C@H](NC(=O)[C@@H]1CCCN1C)C(=O)N[C@H]1CSSC[C@@H](C(=O)N[C@H](C(=O)N2CCC[C@H]2C(=O)N[C@@H](CC(=O)O)C(N)=O)[C@@H](C)CC)NC(=O)[C@H]([C@@H](C)CC)NC(=O)[C@@H]2CCCN2C(=O)[C@@H]2CCCN2C(=O)[C@H](CC(C)(C)C)NC(=O)[C@H](CO)NC(=O)[C@H](CCCNC(=N)N)NC(=O)[C@H](CO)NC1=O
B1: the “human MASP2 IC50” value in assay [1] worked out at 260 nM. Also, the “human MASP1 IC50” value in assay [2] was determined as 9.3 nM.

B2: ((N-Me)A)-IC+SRS-((tBu)A)-PPIC+IPD-NH2 (peptide)
peptide: [NMeA]ICSRS[tBuAla]PPICIPD-NH2
modifications: disulfide 3-11; N-terminus assumed
SMILES: CC[C@H](C)[C@H](NC(=O)[C@H](C)NC)C(=O)N[C@H]1CSSC[C@@H](C(=O)N[C@H](C(=O)N2CCC[C@H]2C(=O)N[C@@H](CC(=O)O)C(N)=O)[C@@H](C)CC)NC(=O)[C@H]([C@@H](C)CC)NC(=O)[C@@H]2CCCN2C(=O)[C@@H]2CCCN2C(=O)[C@H](CC(C)(C)C)NC(=O)[C@H](CO)NC(=O)[C@H](CCCNC(=N)N)NC(=O)[C@H](CO)NC1=O
In the case of B2, the “human MASP2 IC50” value in assay [1] was 440 nM. Moreover, in assay [2], the “human MASP1 IC50” value was 9.5 nM.
In the same order, the values of AICSRSL[(4aR,6aR,9S,11aS)‑11‑Oxo‑2,3,4,4a,6a,7,8,9,11,11a‑decahydro‑1H‑pyrido(3,2-e)pyrrolo(1,2-a)azepine‑9‑carboxylic acid]ICIPD-NH2 (disulfide 3-10) are 72.5 nM and 8.2 nM.

B3: ((N,N-diMe)A)-IC+SRS-((tBu)A)-PPIC+IPD-NH2 (peptide)
peptide: [(N,N-diMe)A]ICSRS[tBuAla]PPICIPD-NH2
modifications: disulfide 3-11; N-terminus assumed
SMILES: CC[C@H](C)[C@H](NC(=O)[C@H](C)N(C)C)C(=O)N[C@H]1CSSC[C@@H](C(=O)N[C@H](C(=O)N2CCC[C@H]2C(=O)N[C@@H](CC(=O)O)C(N)=O)[C@@H](C)CC)NC(=O)[C@H]([C@@H](C)CC)NC(=O)[C@@H]2CCCN2C(=O)[C@@H]2CCCN2C(=O)[C@H](CC(C)(C)C)NC(=O)[C@H](CO)NC(=O)[C@H](CCCNC(=N)N)NC(=O)[C@H](CO)NC1=O
For B3, the “human MASP2 IC50” value in assay [1] stood at 120 nM. The “human MASP1 IC50” value in assay [2] is 8.3 nM.

B4: ((N-Me)G)-IC+SRSLP-(Oic)-I-(Pen)+I-NH2 (peptide)
peptide: [Sar]ICSRSLP[Oic]I[Pen]I-NH2
modifications: disulfide 3-11; N-terminus assumed
SMILES: CC[C@H](C)[C@H](NC(=O)[C@H]1NC(=O)[C@H]([C@@H](C)CC)NC(=O)[C@@H]2C[C@@H]3CCCC[C@@H]3N2C(=O)[C@@H]2CCCN2C(=O)[C@H](CC(C)C)NC(=O)[C@H](CO)NC(=O)[C@H](CCCNC(=N)N)NC(=O)[C@H](CO)NC(=O)[C@@H](NC(=O)[C@@H](NC(=O)CNC)[C@@H](C)CC)CSSC1(C)C)C(N)=O
For B4, in assay [1], the “human MASP2 IC50” value was 295 nM. For the same molecule, the “human MASP1 IC50” value in assay [2] was 8.45 nM.

B5: ((N-Me)G)-IC+SRS-((tBu)A)-PPIC+IPD-OH (peptide)
peptide: [Sar]ICSRS[tBuAla]PPICIPD-OH
modifications: disulfide 3-11; N-terminus assumed
SMILES: CC[C@H](C)[C@H](NC(=O)CNC)C(=O)N[C@H]1CSSC[C@@H](C(=O)N[C@H](C(=O)N2CCC[C@H]2C(=O)N[C@@H](CC(=O)O)C(=O)O)[C@@H](C)CC)NC(=O)[C@H]([C@@H](C)CC)NC(=O)[C@@H]2CCCN2C(=O)[C@@H]2CCCN2C(=O)[C@H](CC(C)(C)C)NC(=O)[C@H](CO)NC(=O)[C@H](CCCNC(=N)N)NC(=O)[C@H](CO)NC1=O
In the case of B5, in assay [1], the “human MASP2 IC50” value was determined as 2600 nM. Besides, the “human MASP1 IC50” value in assay [2] was determined as 8.8 nM.

B6: (Orn)-IC+SRS-((S)-(trifluoromethyl)-L-cysteine)-PPI-(Pen)+IP-NH2 (peptide)
peptide: [Orn]ICSRS[X12]PPI[Pen]IP-NH2
modifications: disulfide 3-11; N-terminus assumed
SMILES: CC[C@H](C)[C@H](NC(=O)[C@@H](N)CCCN)C(=O)N[C@H]1CSSC(C)(C)[C@@H](C(=O)N[C@H](C(=O)N2CCC[C@H]2C(N)=O)[C@@H](C)CC)NC(=O)[C@H]([C@@H](C)CC)NC(=O)[C@@H]2CCCN2C(=O)[C@@H]2CCCN2C(=O)[C@H](CSC(F)(F)F)NC(=O)[C@H](CO)NC(=O)[C@H](CCCNC(=N)N)NC(=O)[C@H](CO)NC1=O
B6: the “human MASP2 IC50” value in assay [1] stood at 56 nM. Moreover, the “human MASP1 IC50” value in assay [2] stood at 8.1 nM.
In the same order, the values of [Sar]ICSRSLP[Oic]I[Pen]IP-NH2 (disulfide 3-11; also: acetate salt) [((N-Me)G)-IC+SRSLP-(Oic)-I-(Pen)+IP-NH2 (Acetate)] are 37 nM and 1.4 nM.

B7: AIC+SRSLPP-(Chg)-C+IPD-NH2 (peptide)
peptide: AICSRSLPP[Chg]CIPD-NH2
modifications: disulfide 3-11; N-terminus assumed
SMILES: CC[C@H](C)[C@H](NC(=O)[C@H](C)N)C(=O)N[C@H]1CSSC[C@@H](C(=O)N[C@H](C(=O)N2CCC[C@H]2C(=O)N[C@@H](CC(=O)O)C(N)=O)[C@@H](C)CC)NC(=O)[C@H](C2CCCCC2)NC(=O)[C@@H]2CCCN2C(=O)[C@@H]2CCCN2C(=O)[C@H](CC(C)C)NC(=O)[C@H](CO)NC(=O)[C@H](CCCNC(=N)N)NC(=O)[C@H](CO)NC1=O
Take B7: the “human MASP2 IC50” value in assay [1] came out at 73.5 nM. In addition, the “human MASP1 IC50” value in assay [2] was 9.8 nM.

B8: (4-(Aminomethyl)benzoic acid)-IC+SRS-((tBu)A)-PPI-((N-Me)C)+IPD-NH2 (peptide)
peptide: [4Amb]ICSRS[tBuAla]PPI[NMeC]IPD-NH2
modifications: disulfide 3-11; N-terminus assumed
SMILES: CC[C@H](C)[C@H](NC(=O)c1ccc(CN)cc1)C(=O)N[C@H]1CSSC[C@@H](C(=O)N[C@H](C(=O)N2CCC[C@H]2C(=O)N[C@@H](CC(=O)O)C(N)=O)[C@@H](C)CC)N(C)C(=O)[C@H]([C@@H](C)CC)NC(=O)[C@@H]2CCCN2C(=O)[C@@H]2CCCN2C(=O)[C@H](CC(C)(C)C)NC(=O)[C@H](CO)NC(=O)[C@H](CCCNC(=N)N)NC(=O)[C@H](CO)NC1=O
Consider B8, for which the “human MASP2 IC50” value in assay [1] came out at 35 nM. Besides, in assay [2], the “human MASP1 IC50” value is 8.1 nM.

B9: AIC+SRSLP-((6S)-5-Azaspiro[2.4]heptane-6-carboxylic acid)-IC+IPD-NH2 (peptide)
peptide: AICSRSLP[Pro(4-spirocPr)]ICIPD-NH2
modifications: disulfide 3-11; N-terminus assumed
SMILES: CC[C@H](C)[C@H](NC(=O)[C@H](C)N)C(=O)N[C@H]1CSSC[C@@H](C(=O)N[C@H](C(=O)N2CCC[C@H]2C(=O)N[C@@H](CC(=O)O)C(N)=O)[C@@H](C)CC)NC(=O)[C@H]([C@@H](C)CC)NC(=O)[C@@H]2CC3(CC3)CN2C(=O)[C@@H]2CCCN2C(=O)[C@H](CC(C)C)NC(=O)[C@H](CO)NC(=O)[C@H](CCCNC(=N)N)NC(=O)[C@H](CO)NC1=O
With B9, the “human MASP2 IC50” value in assay [1] was 33 nM. Further, the “human MASP1 IC50” value in assay [2] is 8.5 nM.

B10: AIC+SRSNPPI-(Pen)+IPD-NH2 (peptide)
peptide: AICSRSNPPI[Pen]IPD-NH2
modifications: disulfide 3-11; N-terminus assumed
SMILES: CC[C@H](C)[C@H](NC(=O)[C@H](C)N)C(=O)N[C@H]1CSSC(C)(C)[C@@H](C(=O)N[C@H](C(=O)N2CCC[C@H]2C(=O)N[C@@H](CC(=O)O)C(N)=O)[C@@H](C)CC)NC(=O)[C@H]([C@@H](C)CC)NC(=O)[C@@H]2CCCN2C(=O)[C@@H]2CCCN2C(=O)[C@H](CC(N)=O)NC(=O)[C@H](CO)NC(=O)[C@H](CCCNC(=N)N)NC(=O)[C@H](CO)NC1=O
With B10, in assay [1], the “human MASP2 IC50” value came out at 480 nM. Besides, the “human MASP1 IC50” value in assay [2] was found to be 9.4 nM.

B11: AIC+SRS-((4-Fluoro)L)-PPIC+IPD-NH2 (peptide)
peptide: AICSRS[Leu(4-F)]PPICIPD-NH2
modifications: disulfide 3-11; N-terminus assumed
SMILES: CC[C@H](C)[C@H](NC(=O)[C@H](C)N)C(=O)N[C@H]1CSSC[C@@H](C(=O)N[C@H](C(=O)N2CCC[C@H]2C(=O)N[C@@H](CC(=O)O)C(N)=O)[C@@H](C)CC)NC(=O)[C@H]([C@@H](C)CC)NC(=O)[C@@H]2CCCN2C(=O)[C@@H]2CCCN2C(=O)[C@H](CC(C)(C)F)NC(=O)[C@H](CO)NC(=O)[C@H](CCCNC(=N)N)NC(=O)[C@H](CO)NC1=O
Take B11: the “human MASP2 IC50” value in assay [1] amounted to 300 nM. Further, the “human MASP1 IC50” value in assay [2] stood at 8.9 nM.

B12: AIC+SRSLPP-(Chg)-C+I-NH2 (peptide)
peptide: AICSRSLPP[Chg]CI-NH2
modifications: disulfide 3-11; N-terminus assumed
SMILES: CC[C@H](C)[C@H](NC(=O)[C@@H]1CSSC[C@H](NC(=O)[C@@H](NC(=O)[C@H](C)N)[C@@H](C)CC)C(=O)N[C@@H](CO)C(=O)N[C@@H](CCCNC(=N)N)C(=O)N[C@@H](CO)C(=O)N[C@@H](CC(C)C)C(=O)N2CCC[C@H]2C(=O)N2CCC[C@H]2C(=O)N[C@@H](C2CCCCC2)C(=O)N1)C(N)=O
On to B12, for which, in assay [1], the “human MASP2 IC50” value stood at 92 nM. Moreover, the “human MASP1 IC50” value in assay [2] amounted to 8.9 nM.

B13: (Ahx)-IC+SRS-((tBu)A)-PPI-(Pen)+IP-NH2 (peptide)
peptide: [Ahx]ICSRS[tBuAla]PPI[Pen]IP-NH2
modifications: disulfide 3-11; N-terminus assumed
SMILES: CC[C@H](C)[C@H](NC(=O)CCCCCN)C(=O)N[C@H]1CSSC(C)(C)[C@@H](C(=O)N[C@H](C(=O)N2CCC[C@H]2C(N)=O)[C@@H](C)CC)NC(=O)[C@H]([C@@H](C)CC)NC(=O)[C@@H]2CCCN2C(=O)[C@@H]2CCCN2C(=O)[C@H](CC(C)(C)C)NC(=O)[C@H](CO)NC(=O)[C@H](CCCNC(=N)N)NC(=O)[C@H](CO)NC1=O
As to B13, the “human MASP2 IC50” value in assay [1] was determined as 16 nM. In addition, in assay [2], the “human MASP1 IC50” value worked out at 9.9 nM.

The values above are taken from US20210246166A1 (Bayer, published 2021).
